Assays:
[1] = tested on: MS2 coat protein; test: apparent KD of MS2 coat protein, switch ON state; designed switch direction (-1 OFF switch, 1 ON switch): -1; higher = weaker reporter binding; conditions: FMN input: 0 or 200 uM; Eterna round: R93 (includes R88 designs)
Outline: (§1)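 Apparent KD per design is the median of normalised cluster binding-curve fits. Designed RNA switches transcribed on-chip from Illumina sequencing clusters were titrated with SNAP-549-labelled MS2 coat protein in twofold steps from 0.7 or 1.5 nM to 3 µM, with 0.8–1.5 h down to 10–20 min per step. Buffer: 100 mM Tris-HCl pH 7.5, 80 mM KCl, 4 mM MgCl2, without or with constant ligand.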

[2] = tested on: MS2 coat protein; test: apparent KD of MS2 coat protein, switch OFF state (with FMN for OFF switches, without FMN for ON switches); designed switch direction (-1 OFF switch, 1 ON switch): -1; higher = weaker reporter binding; conditions: FMN input: 0 or 200 uM; Eterna round: R93 (includes R88 designs)
Outline: as §1

Sequence: UCGAUGCGAGGAUAUACUAAGGCAACUACUGCAGCUCAAAAACAUGAGGAUCACCCAUGUAGAAGGCGCAUAUA [JR_Exc002_Sub304]
- apparent KD of MS2 coat protein [1]: 19.6 nM
- apparent KD of MS2 coat protein [2]: 18.1 nM

Sequence: AAACCACAUGAGGAUCACCCAUGUUAGGAUAUGAACGAAAAUAAAUAAAAAUAAAAGUUCAGAAGGGACAAAAA [66%, Wbt, 21]
- apparent KD of MS2 coat protein [1]: 21.5 nM
- apparent KD of MS2 coat protein [2]: 14.9 nM

Sequence: AAAAAACAUGAGGAUCACCCAUGUGAGGAUAUGCGAAAAUAAAAUAAAAUAAUAAAAAGCAGAAGGCACAAAAA [58%, Sh'dynasty, 1]
- apparent KD of MS2 coat protein [1]: 67.7 nM
- apparent KD of MS2 coat protein [2]: 89.3 nM

Sequence: AAAACGUGAGGAUAUGCACCAAAAAAGAAAAAACGGGUACGACAUGAGGAUCACCCAUGUAGAAGGCACGAAAA [Frodo Flailing 8 - Jieux - Exclusion 2]
- apparent KD of MS2 coat protein [1]: 35.3 nM
- apparent KD of MS2 coat protein [2]: 37.2 nM

Sequence: CAAAAACAUGAGGAUCACCCAUGUGAGGAUAUACGAAAGUAGAAGGCACUAAAACAAAACAGAAGGACAAAACA [Meechl Ex1 R2 m3]
- apparent KD of MS2 coat protein [1]: 17.9 nM
- apparent KD of MS2 coat protein [2]: 24.6 nM

Sequence: AAAAAACAUGAGGAUCACCCAUGUGAGGAUAUGAAAAUACUAAGACAACUGUAAUCAAUCAGAAGGCACAACAA [JR_Exc--1_Sub1208]
- apparent KD of MS2 coat protein [1]: 18.8 nM
- apparent KD of MS2 coat protein [2]: 19.6 nM

Sequence: AGUCAUACAGGAUAUACAUGAGGAUCACCCAUGUAAAUCCUAAAAAGAAAAAACUCAUGUAGAAGGGUAUGACA [EX3 223: Super Stable 23]
- apparent KD of MS2 coat protein [1]: 16.1 nM
- apparent KD of MS2 coat protein [2]: 39.2 nM

Sequence: AGCUAGUCAGGAUAUACGAACAUGUCAAAAGACGAGAAGGGACAUGAGGAUCACCCAUGUAGAAGGGACUAGCA [Diamond 21]
- apparent KD of MS2 coat protein [1]: 87.5 nM
- apparent KD of MS2 coat protein [2]: 198 nM

Sequence: AAAAUGUCAGGAUAUGUAAAAAAAAAAAAAAAAAAAAAAAUACAGAAGGGACAUGAGGAUCACCCAUGUCAGGG [EX4 390: Minimal 2]
- apparent KD of MS2 coat protein [1]: 113 nM
- apparent KD of MS2 coat protein [2]: 79 nM

Sequence: AAAAAGGCAGGAUAUACAUGAGGAUCACCCAUGUAAAAAAAAACAAGAGAAAAAAAAUGUAGAAGGGCCAAAAA [Ex3 Malc#3]
- apparent KD of MS2 coat protein [1]: 26.8 nM
- apparent KD of MS2 coat protein [2]: 26 nM

Sequence: AAAGAUGGAGGAUAUACAUGAGGAUCACCCAUGUGGAAAAAAAAUUGGGAAAAAGAAAGUAGAAGGCCAAAAAA [Ex 3 May 42]
- apparent KD of MS2 coat protein [1]: 48.1 nM
- apparent KD of MS2 coat protein [2]: 155 nM

Sequence: AAAAAACAUGAGGAUCACCCAUGUCAGGAUAUCUGUAUUCAAUCCUCGGAUUGAAUACAGAGAAGGGACAUAAA [Ex1: 605]
- apparent KD of MS2 coat protein [1]: 46.2 nM
- apparent KD of MS2 coat protein [2]: 126 nM

Sequence: AAAGGAGCAGGAUAUACAUGAGGAUCACCCAUGUAAAAAACAUAAUAAAAGAACUUAUGUAGAAGGGCUCCAAA [69%, Moding Meechl, 10]
- apparent KD of MS2 coat protein [1]: 48.2 nM
- apparent KD of MS2 coat protein [2]: 228 nM

Sequence: AUAGGUCAAGGAUAUACAUGAGGAUCACCCAUGUAAAUAACUCCAUAAAACUCCACAAGUAGAAGGUGAAAUAA [JR_Exc003_Sub202]
- apparent KD of MS2 coat protein [1]: 17.9 nM
- apparent KD of MS2 coat protein [2]: 15.8 nM

Sequence: GGAAAACAUGAGGAUCACCCAUGUAAGGAUAUGCUAGGGAGGGAAAAAAUUUCGCCAGGCAGAAGGUACUAAAG [Janelle Amethyst 18 Mod 6 - Jieux - Exclusion 1]
- apparent KD of MS2 coat protein [1]: 23.5 nM
- apparent KD of MS2 coat protein [2]: 44.7 nM

Sequence: CUCAUGUUAGGAUAUUAAUGAAAUGAAGUGAAAGAAAAGAAUAAGAAGGAACAUGAGGAUCACCCAUGUUAGAA [EteRNA is fun!]
- apparent KD of MS2 coat protein [1]: 69.3 nM
- apparent KD of MS2 coat protein [2]: 25.2 nM

Sequence: AAAAGGGCAGGAUAUGCAUGUUGGCAAAAUUCUCAUCAAACACAUGAGGAUCACCCAUGUAGAAGGGCCAACGG [Inonenonat]
- apparent KD of MS2 coat protein [1]: 110 nM
- apparent KD of MS2 coat protein [2]: 161 nM

Sequence: AAUAAGUGAGGAUAUGGAAAUAGUAGAUAAGAUUCCCUAAACCAGAAGGCACAUGAGGAUCACCCAUGUAAAUA [JR_Exc004_Sub005]
- apparent KD of MS2 coat protein [1]: 38.7 nM
- apparent KD of MS2 coat protein [2]: 26.4 nM

Sequence: AAAAAGCGAGGAUAUACUAAAAAACCUCAAAAAAAAAAAAAACAUGAGGAUCACCCAUGUAGAAGGCGCAAAAA [JR_Exc002_Sub001]
- apparent KD of MS2 coat protein [1]: 86.1 nM
- apparent KD of MS2 coat protein [2]: 113 nM

Sequence: AACUGACAUGAGGAUCACCCAUGUCAGGAUAUGAUUUGACGAAAAAAAAAAAGUCAUAUCAGAAGGGACAUGGG [Design 82: Sub-opt V]
- apparent KD of MS2 coat protein [1]: 19 nM
- apparent KD of MS2 coat protein [2]: 17.6 nM

Sequence: UUUAUGUGAGGAUAUACGAAUAGUAAGUAAGUAUUACAGACGUAGAAGGCACAUGAGGAUCACCCAUGUGAAUA [JR_Exc004_Sub307]
- apparent KD of MS2 coat protein [1]: 32.7 nM
- apparent KD of MS2 coat protein [2]: 58.8 nM

Sequence: AAGAACGCAGGAUAUACAAAAUAAAAGAAAAGAAAGAAAGAACAUGAGGAUCACCCAUGUAGAAGGGCGAAGAA [Sewadjkare]
- apparent KD of MS2 coat protein [1]: 52.2 nM
- apparent KD of MS2 coat protein [2]: 49.5 nM

From the supplement of paper PMC9170038
